Assay results reported in US20250186597A1, “TARGETED IMMUNE ACTIVATION WITH IL-18 IMMUNOCYTOKINES” (BRIGHT PEAK THERAPEUTICS AG, priority 2023, published 2025).

T1: human IL-18BP (Homo sapiens, UniProt O95998)
T1 construct: His
T1 sequence (O95998 31-194): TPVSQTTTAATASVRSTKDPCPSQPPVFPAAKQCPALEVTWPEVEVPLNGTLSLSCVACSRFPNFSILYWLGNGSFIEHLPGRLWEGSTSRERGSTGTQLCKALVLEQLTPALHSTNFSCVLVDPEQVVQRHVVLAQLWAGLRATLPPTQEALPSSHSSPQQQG


How the values were obtained:
human IL-18BP = molecular target: T1, human IL-18BP; assay: IL-18BP binding alphaLISA assay (Example 4, used in Example 22B); details: IL-18BP AlphaLISA
Description: A human IL-18BP AlphaLISA Assay Kit is used to determine the binding affinity of each immunocytokine and IL-18 variant for IL-18BP, which detected the presence of free form IL-18BP.
Sixteen three-fold serial dilutions of IL-18 analytes are prepared in aMEM medium supplemented with 20% FCS, Glutamax, and 25 µM β-mercaptoethanol in the presence of 5 ng/mL of His-tagged human IL-18BP. Final IL-18 analytes concentration range from 2778 nM to […].
After 1 hr incubation at room temperature, free IL-18BP levels are measured using a […]. In a 384 well OPTIplate, 5 μL of 5× Anti-IL-18BP acceptor beads are added to 7.5 μL of an IL-18/IL-18BP mix. After 30 min incubation at room temperature with shaking, 5 μL of biotinylated Anti-IL-18BP antibodies are added to each well. The plate is incubated further for 1 hr at room temperature. Under subdued light, 12.5 μL of 2× streptavidin (SA) donor beads are pipetted into each well, and the wells are incubated with shaking for an additional 30 min at room temperature. The AlphaLisa signal is then measured on an Enspire plate reader with 680 and 615 nm as excitation and emission wavelengths, respectively. The dissociation constant (KD) is calculated based on a variable slope, four parameter analysis using GraphPad PRISM software.
An IL-18 binding protein AiphaLISA experiment substantially as described in Example 4 was performed on IL-18 polypeptide which can be incorporated into immunocytokine compositions as provided herein to assess ability to bind to IL-181BP. It is expected that the IL-18 polypeptides provided below would behave analogously to C086 (SEQ ID NO: 30) when incorporated into an immunocytokine composition as those otherwise provided herein.

NK-92 cells [1] = assay: IFNγ induction cellular assay in NK-92 cells (Example 4, used in Example 22C); format: cell-based, human; details: IFNg stimulation in NK92 cells
Description: The ability of immunocytokines and IL-18 polypeptides provided herein are assessed for ability to induce IFN[…] in a cellular assay according to the protocol below.
The NK cell line NK-92 derived from a patient with lymphoma (ATCC® CRL-2407™) is cultured in aMEM medium supplemented with 20% FCS, Glutamax, 25 µM B-mercaptoethanol, and 100 IU/mL of recombinant human IL-2.
On the day of experiment, cells are harvested and washed with aMEM medium without IL-2 and containing 1 ng/mL of recombinant human IL-12. After counting, cells are seeded at 100,000 cells/well in a 384 well titer plate and incubated at 37° C./5% CO2. Sixteen 4-fold serial dilutions of IL-18 analytes are prepared in aMEM medium, and 1 ng/mL of IL-12 were added to the NK-92 cells. Final IL-18 analyte concentrations range from 56 nM to 5×10^−5 pM.
After incubating the cells for 16-20 hr at 37° C./5% CO2, 5 μL of supernatant is carefully transferred to a 384 microwell OptiPlate. IFNγ levels are measured using a human IFNγ AlphaLISA Assay Kit. Briefly, 10 μL of 2.5× AlphaLISA Anti-IFNγ acceptor beads and biotinylated antibody anti-IFNγ mix are added to the 5 μL of NK-92 supernatants. The mixtures are incubated for 1 hr at room temperature with shaking. Under subdued light, 2.5 μL of 2× streptavidin (SA) donor beads are pipetted into each well, and the wells are incubated for 30 min at room temperature with shaking. AlphaLISA signals are then measured on an EnSpire™ plate reader using 680 nm and 615 nm as excitation and emission wavelengths, respectively. Half maximal effective concentrations (EC50) are calculated based on a variable slope and four parameter analysis using GraphPad PRISM software.
(§1) The experiments described in Example 4 for determination of IFNg stimulation in NK92 cells (and inhibition by IL-18 BP) were performed substantially as described on IL-18 polypeptides in order to assess their activities and their suitability for incorporation into immunocytokine compositions. It is expected that the IL-18 polypeptides provided below would behave analagously to C086 (SEQ ID NO: 30) when incorporated into an immunocytokine composition as those otherwise provided herein.

NK-92 cells [2] = assay: IL-18 binding protein inhibition cellular assay in NK-92 cells (Example 4, used in Example 22C); format: cell-based, human; details: inhibition by IL-18BP of IFNg stimulation in NK92 cells
Description: The NK cell line NK-92 derived from a patient with lymphoma (ATCC® CRL-2407™) is cultured in aMEM medium supplemented with 20% FCS-Glutamax, 25 µM B-mercaptoethanol, and 100 IU/mL of recombinant human IL-2.
On the day of experiment, cells are harvested and washed with aMEM medium without IL-2 and containing 1 ng/mL of recombinant human IL-12. After counting, the cells are seeded at 100,000 cells/well in a 384 well titer plate and incubated at 37° C./5% CO2. Sixteen 2-fold serial dilutions of Fc-fused human IL-18 binding protein isoform a (IL-18BPa) are prepared in aMEM medium. 1 ng/mL of IL-12 containing 2 nM of each IL-18 polypeptide variant is added to the NK-92 cells. The final IL-18 analyte concentration is 1 nM, and the final IL-18BPa concentration ranged from 566 nM to […].
After incubating the cells for 16-20 hr at 37° C./5% CO2, 5 μL of the supernatant is carefully transferred to a 384 microwell OptiPlate. IFNγ levels are measured using a human IFNγ AlphaLISA Assay Kit. Briefly, 10 μL of 2.5× AlphaLISA anti-IFNγ acceptor beads and biotinylated antibody anti-IFNγ mix are added to 5 μL of NK-92 supernatants. The mixtures are incubated for 1 hr at room temperature with shaking. Under subdued light, 2.5 μL of 2×SA donor beads are pipetted in each well and incubated for 30 min at room temperature with shaking. AlphaLISA signals are then measured on an EnSpire™ plate reader using 680 nm and 615 nm as excitation and emission wavelengths, respectively. Half maximal inhibitory concentrations (IC50) are calculated based on a variable slope and four parameter analysis using GraphPad PRISM software.
as §1

Molecule	Kd (human IL-18BP)	EC50 (NK-92 cells [1])	IC50 (NK-92 cells [2])
SEQ ID NO: 72: IL-18 polypeptide: N-terminal 4xG, E6K, V11I, C38A, K53A, T63A, C76A, C127A (protein, N-terminal 4xG, IL-18 polypeptide: N-terminal 4xG, E6K, V11I, C38A, K53A, T63A, C76A, C127A) GGGGYFGKLKSKLSIIRNLNDQVLFIDQGNRPLFEDMTDSDARDNAPRTIFIISMYADSQPRGMAVAISVKCEKISTLSAENKIISFKEMNPPDNIKDTKSDIIFFQRSVPGHDNKMQFESSSYEGYFLAAEKERDLFKLILKKEDELGDRSIMFTVQNED	> 2800 nM	–	–
C142: IL-18 polypeptide: Y1M, E6K, V11I, C38A, K53A, T63A, C76A, C127A (protein) MFGKLKSKLSIIRNLNDQVLFIDQGNRPLFEDMTDSDARDNAPRTIFIISMYADSQPRGMAVAISVKCEKISTLSAENKIISFKEMNPPDNIKDTKSDIIFFQRSVPGHDNKMQFESSSYEGYFLAAEKERDLFKLILKKEDELGDRSIMFTVQNED	2.25 nM	–	–
49 (protein) YFGKLKSKLSVIRNLNDQVLFIDQGNRPLFEDMTDSDSRDNAPRTIFIISMYADAQPRGMAVTISVKSECISTLSSENKIISFKEMNPPDNIKDTKSDIIFFQRSVPGHDNKMQFESSSYEGYFLASEKERDLFKLILKKEDELGDRSIMFTVQNED	> 1000 nM	58.5 nM	–
46 (protein) YFGKLKSKLSVIRNLNDQVLFIDQGNRPLFEDMTDSDCRDNAPRTIFIISGYADAQPRGMAVTISVKCEKISTLSCENKIISFKEMNPPDNIKDTKSDIIFFQRSVPGHDNKMQFESSSYEGYFLACEKERDLFKLILKKEDELGDRSIMFTVQNED	> 1000 nM	7.4 nM	0.189 nM
C184: IL-18 polypeptide: E6R, V11I, C38A, K53A, T63A, C76A, C127A (protein) YFGKLRSKLSIIRNLNDQVLFIDQGNRPLFEDMTDSDARDNAPRTIFIISMYADSQPRGMAVAISVKCEKISTLSAENKIISFKEMNPPDNIKDTKSDIIFFQRSVPGHDNKMQFESSSYEGYFLAAEKERDLFKLILKKEDELGDRSIMFTVQNED	5.46 nM	–	–
5 (protein) YFGKLKSKLSIIRNLNDQVLFIDQGNRPLFEDMTDSDARDNAPRTIFIISMYADSQPRGMAVAISVKAEKISTLSAENKIISFKECNPPDNIKDTKSDIIFFQRSVPGHDNKMQFESSSYEGYFLAAEKERDLFKLILKKEDELGDRSIMFTVQNED	–	0.075 nM	62.4 nM
SEQ ID NO: 71: IL-18 polypeptide: N-terminal G, E6K, V11I, C38A, K53A, T63A, C76A, C127A (protein, N-terminal G, IL-18 polypeptide: N-terminal G, E6K, V11I, C38A, K53A, T63A, C76A, C127A) GYFGKLKSKLSIIRNLNDQVLFIDQGNRPLFEDMTDSDARDNAPRTIFIISMYADSQPRGMAVAISVKCEKISTLSAENKIISFKEMNPPDNIKDTKSDIIFFQRSVPGHDNKMQFESSSYEGYFLAAEKERDLFKLILKKEDELGDRSIMFTVQNED	> 2800 nM	–	–
SEQ ID NO: 70: IL-18 polypeptide: N-terminal G, E6K, V11I, C38A, M51G, K53A, T63A, C76A, C127A (protein, N-terminal G, IL-18 polypeptide: N-terminal G, E6K, V11I, C38A, M51G, K53A, T63A, C76A, C127A) GYFGKLKSKLSIIRNLNDQVLFIDQGNRPLFEDMTDSDARDNAPRTIFIISGYADSQPRGMAVAISVKCEKISTLSAENKIISFKEMNPPDNIKDTKSDIIFFQRSVPGHDNKMQFESSSYEGYFLAAEKERDLFKLILKKEDELGDRSIMFTVQNED	> 2800 nM	–	–

Now from value to molecule:

Kd (human IL-18BP)	EC50 (NK-92 cells [1])	IC50 (NK-92 cells [2])	Molecule
822 nM	0.144 nM	1060 nM	42 (protein) YFGKLKSKLSVIRNLNDQVLFIDQGNRPLFEDMTDSDCRDNAPRTIFIISMYADAQPRGMAVAISVKCEKISTLSCENKIISFKEMNPPDNIKDTKSDIIFFQRSVPGHDNKMQFESSSYEGYFLACEKERDLFKLILKKEDELGDRSIMFTVQNED
> 1000 nM	> 1000 nM	–	44 (protein) YAGKLKSKLSVIRNLNDQVLFIDQGNRPLFEDMTDSDCRDNAPRTIFIISMYADAQPRGMAVTISVKCEKISTLSCENKIISFKEMNPPDNIKDTKSDIIFFQRSVPGHDNKMQFESSSYEGYFLACEKERDLFKLILKKEDELGDRSIMFTVQNED
> 1000 nM	30 nM	–	45 (protein) YFGKLKSKLSVIRNLNDQVLFIDQGNRPLFEDMTDSDCRDNAPRTIFIISMYAAAQPRGMAVTISVKCEKISTLSCENKIISFKEMNPPDNIKDTKSDIIFFQRSVPGHDNKMQFESSSYEGYFLACEKERDLFKLILKKEDELGDRSIMFTVQNED
0.21 nM	0.488 nM	0.114 nM	48 (protein) YFGKLESKLSVIRNLNDQVLFIDQGNRPLFEDMTDSDSRDNAPRTIFIISMYKDSQPRGMAVTISVKSECISTLSSENKIISFKEMNPPDNIKDTKSDIIFFQRSVPGHDNKMQFESSSYEGYFLASEKERDLFKLILKKEDELGDRSIMFTVQNED
0.03 nM	0.115 nM	0.444 nM	47 (protein) YFGKLESKLSVIRNLNDQVLFIDQGNRPLFEDMTDSDSRDNAPRTIFIISMYKDSQPRGMAVTISVKSEKISTLSSENKIISFKEMNPPDNIKDTKSDIIFFQRSVPGHDNKMQFESSSYEGYFLASEKERDLFKLILKKEDELGDRSIMFTVQNED
–	1.37 nM	5.85 nM	6 (protein) YFGKLKSKLSIIRNLNDQVLFIDQGNRPLFEDMTDSDARDNAPRTIFIISMYADSQPRGMAVAISVKAEKISTLSAENKIISFKEMNPPDNIKDTKSCIIFFQRSVPGHDNKMQFESSSYEGYFLAAEKERDLFKLILKKEDELGDRSIMFTVQNED
